Target: Abi2-SH3 domain (AbI2B) (SH3 domain array) (Homo sapiens (Human), UniProt Q9NYB9-1)
Test: SH3 domain array (far-western overlay)

Abi2-SH3 domain (AbI2B) (SH3 domain array), sequence (Q9NYB9 451-510): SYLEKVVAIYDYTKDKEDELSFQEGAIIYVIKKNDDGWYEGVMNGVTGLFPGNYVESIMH

Question: Does SLLFRRTKATAPGPEGGGTLHPNPTDKTSSIQSRPLPSPPKFT (protein) [His-tagged-p130Cas-P2 domain] bind?
Answer: Result: binds
